Experimental data from patent US20230212549A1 (3B PHARMACEUTICALS, published 2023).
Several values for one entry are separate records, joined by “and”; a condition that tells them apart may be missing. Identical values can stand only once. Numbered stars: 1 amine (or outer) side, 2 acyl side, 3 side chain; on linkers, the order of the positions; unused ones are H or OH. Bridge positions count the residues as written; N and C are the ends. Square brackets hold non-standard residues; d marks the D form. Primed or numbered codes have the meaning given here. * marks the point of attachment. tMeBn(LuDOTA-AET) = 1,3,5-trimethylbenzylidene (from 1,3,5-tris(bromomethyl)benzene) bridge with two thioethers to the Cys, its third CH2 carries AET (2-aminoethanethiol, attached through S), whose amine is acylated by DOTA complexing lutet, O=C([O-])CN1CCN(CC(=O)[O-])CCN(CC(=O)NCCSCc2cc(C[*:1])cc(C[*:2])c2)CCN(CC(=O)[O-])CC1.[Lu+3]; tMeBn(DOTA-PP) = 1,3,5-trimethylbenzylidene, two thioethers to Cys, third CH2 bound to one N of piperazine whose other N bears DOTA, O=C(O)CN1CCN(CC(=O)O)CCN(CC(=O)N2CCN(Cc3cc(C[*:1])cc(C[*:2])c3)CC2)CCN(CC(=O)O)CC1; tMeBn(DOTA-AET) = 1,3,5-trimethylbenzylidene (from 1,3,5-tris(bromomethyl)benzene), two thioethers to Cys, third CH2 bears 2-aminoethanethiol via S, its amine acylated by DOTA; Ttds″ = 1,13-diamino-4,7,10-trioxatridecan-succinamic acid spacer, O=C(CCC(=O)[*:2])NCCCOCCOCCOCCCN[*:1]; Efa = N-[2-(2-amino-ethanesulfonyl)-ethyl]-succinamic acid, O=C(CCC(=O)[*:2])NCCS(=O)(=O)CCN[*:1]; Ttds = 1,13-diamino-4,7,10-trioxatridecan-succinamic acid, O=C(CCC(=O)[*:2])NCCCOCCOCCOCCCN[*:1]; 3MeBn = 3-Methylbenzylidene (m-xylylene thioether bridge from α,α′-dibromo-m-xylene); Opc = (S)-N-(pyrazinylcarbonyl)-ornithine, O=C(NCCC[C@H](N[*:1])C(=O)[*:2])c1cnccn1; N4Ac = 6-Carboxy-1,4,8,11-tetraazaundecane, an N4-chelator, NCCNCC(CNCCN)C(=O)*; 3MeBn(3) = 3-methylbenzylidene (m-xylylene), from α,α′-dibromo-m-xylene; DOTA = O=C(O)CN1CCN(CC(=O)O)CCN(CC(=O)*)CCN(CC(=O)O)CC1; Pro(trans-4-Ph) = O=C(O)[C@@H]1C[C@@H](c2ccccc2)CN1; mXylylene = c1cc(C[*:1])cc(C[*:2])c1; NMeF = CN[C@@H](Cc1ccccc1)C(=O)O; AF488 = Alexa Fluor 488 label; Pen = CC(C)(S)[C@H](N)C(=O)O; AGLU′ = not defined here; Nle = CCCC[C@H](N)C(=O)O; Hexanoyl = CCCCCC(=O)*; Ahx = NCCCCCC(=O)O; GABA = NCCCC(=O)O

T1: recombinant human PREP (R&D systems, #4308-SE) (human, UniProt P48147 1-710)
T1 sequence: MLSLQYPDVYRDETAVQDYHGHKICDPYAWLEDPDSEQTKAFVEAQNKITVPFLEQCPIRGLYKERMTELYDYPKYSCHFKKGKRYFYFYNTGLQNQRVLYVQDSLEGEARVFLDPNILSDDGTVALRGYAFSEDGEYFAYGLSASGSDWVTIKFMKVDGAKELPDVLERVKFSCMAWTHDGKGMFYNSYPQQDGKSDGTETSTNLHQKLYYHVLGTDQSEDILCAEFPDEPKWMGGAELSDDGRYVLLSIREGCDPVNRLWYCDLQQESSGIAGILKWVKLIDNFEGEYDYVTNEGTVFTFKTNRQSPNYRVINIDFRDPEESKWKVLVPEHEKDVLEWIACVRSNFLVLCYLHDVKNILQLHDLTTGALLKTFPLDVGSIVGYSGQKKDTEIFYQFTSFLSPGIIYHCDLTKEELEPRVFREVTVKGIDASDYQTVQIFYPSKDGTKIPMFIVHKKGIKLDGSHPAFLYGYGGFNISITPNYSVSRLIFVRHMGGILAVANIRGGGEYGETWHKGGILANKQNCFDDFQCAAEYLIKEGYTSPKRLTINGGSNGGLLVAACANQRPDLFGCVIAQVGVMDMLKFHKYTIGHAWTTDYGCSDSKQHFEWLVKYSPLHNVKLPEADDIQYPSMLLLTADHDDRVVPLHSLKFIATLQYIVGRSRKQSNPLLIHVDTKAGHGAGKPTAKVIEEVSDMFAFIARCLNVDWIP


What was measured:
[1] = target: Recombinant human FAP (R&D systems, #3715-SE) (human, UniProt Q12884 26-760); test: cell-based or functional assay
[2] = target: T2, fibroblast activation protein (FAP) on FAP-expressing human WI-38 fibroblasts (human, UniProt Q12884 1-760); test: competitive FACS, WI-38 cells, vs Cy5 tracer m3; D = pIC50 <=6.0
T2 construct: also called human FAP

[3] = target: T3, Recombinant human FAP (R&D systems, #3715-SE) (human, UniProt Q12884 26-760); test: SPR (Biacore T200), FAP captured on anti-FAP antibody, single cycle kinetics
T3 construct: bought; in SPR captured on immobilized anti-FAP antibody MAB3715; also called rhFAP; human recombinant FAP

[4] = target: T4, human fibroblast activation protein (FAP) on WI-38 fibroblasts (human, UniProt Q12884 1-760); test: competitive FACS, WI-38 cells, Cy5-labeled peptide as competitor; B = pIC50 7.1 to 8.0
T4 construct: FAP-expressing human WI-38 fibroblasts (ECACC)

[5] = target: Recombinant human DPP4 (R&D systems, #9168-SE) (human, UniProt P27487 29-766); test: cell-based or functional assay
[6] = target: T1, recombinant human PREP (R&D systems, …); test: cell-based or functional assay
[7] = target: T3, Recombinant human FAP (R&D systems, …); test: cell-based or functional assay; remark: listed apart in the source

Chain of Recombinant human DPP4 (R&D systems, #9168-SE) (P27487 29-766 limits assumed): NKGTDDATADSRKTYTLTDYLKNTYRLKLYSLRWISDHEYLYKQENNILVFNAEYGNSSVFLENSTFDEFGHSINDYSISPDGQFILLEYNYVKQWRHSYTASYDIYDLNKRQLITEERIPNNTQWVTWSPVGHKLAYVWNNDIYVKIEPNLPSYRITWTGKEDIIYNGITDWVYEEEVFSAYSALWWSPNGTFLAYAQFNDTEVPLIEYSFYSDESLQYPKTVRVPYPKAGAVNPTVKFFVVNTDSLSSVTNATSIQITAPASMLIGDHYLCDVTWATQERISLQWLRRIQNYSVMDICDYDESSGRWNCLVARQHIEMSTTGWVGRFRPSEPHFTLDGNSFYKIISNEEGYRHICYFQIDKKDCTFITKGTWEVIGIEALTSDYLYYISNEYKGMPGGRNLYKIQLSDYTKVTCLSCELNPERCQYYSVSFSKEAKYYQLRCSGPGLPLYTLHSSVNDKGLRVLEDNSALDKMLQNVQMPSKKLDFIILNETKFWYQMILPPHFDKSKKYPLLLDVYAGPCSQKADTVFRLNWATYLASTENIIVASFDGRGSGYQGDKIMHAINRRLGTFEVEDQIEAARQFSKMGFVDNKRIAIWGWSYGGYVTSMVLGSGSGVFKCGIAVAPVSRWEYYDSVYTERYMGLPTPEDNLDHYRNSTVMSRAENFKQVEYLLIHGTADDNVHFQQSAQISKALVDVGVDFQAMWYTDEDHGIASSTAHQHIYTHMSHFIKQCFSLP

Binder | pIC50 Category (Activity) [1] | pIC50 Category (FACS) [2] [pIC50] | pIC50 [4] [pic50] | also measured
Hexanoyl-CPP[Opc]EFC-NH2 (linker 1-7 via mXylylene; SMILES CCCCCC(=O)N[C@H]1CSCc2cccc(c2)CSC[C@@H](C(N)=O)NC(=O)[C@H](Cc2ccccc2)NC(=O)[C@H](CCC(=O)O)NC(=O)[C@H](CCCNC(=O)c2cnccn2)NC(=O)[C@@H]2CCCN2C(=O)[C@@H]2CCCN2C1=O, also called 3BP-3355) [Hex-[Cys(3MeBn)-Pro-Pro-Opc-Glu-Phe-Cys]-NH2] | 6.1 pIC50 and 7 pIC50 | ≤ 6 | – | –
N4Ac-[Efa][Nle]CPPTEFC-OH (linker 3-9 via 3MeBn(3), also called 3BP-4243) [N4Ac-Efa-Nle-[Cys-(3MeBn)-Pro-Pro-Thr-Glu-Phe-Cys]-OH] | – | – | 7.1 to 8 | –
{DOTA}-[Ttds][Nle]CPPTQFCD[Ttds]K(DOTA)-NH2 (linker 3-9 via tMeBn(DOTA-AET), also called 3BP-4392) [DOTA-Ttds-Nle-[Cys(tMeBn(DOTA-AET))-Pro-Pro-Thr-Gln-Phe-Cys]-Asp-Ttds-Lys(DOTA)-NH2] | – | – | 7.1 to 8 | –
Hexanoyl-CP[Pro(trans-4-Ph)]TEFC-NH2 (linker 1-7 via mXylylene; SMILES CCCCCC(=O)N[C@H]1CSCc2cccc(c2)CSC[C@@H](C(N)=O)NC(=O)[C@H](Cc2ccccc2)NC(=O)[C@H](CCC(=O)O)NC(=O)[C@H]([C@@H](C)O)NC(=O)[C@@H]2C[C@@H](c3ccccc3)CN2C(=O)[C@@H]2CCCN2C1=O, also called 3BP-3353) [Hex-[Cys(3MeBn)-Pro-Eay-Thr-Glu-Phe-Cys]-NH2] | 6.1 pIC50 and 7 pIC50 | ≤ 6 | – | –
Hexanoyl-CPPTQFCD-NH2 (linker 1-7 via tMeBn(DOTA-AET), also called 3BP-3426) [Hex-[Cys(tMeBn(DOTA-AET))-Pro-Pro-Thr-Gln-Phe-Cys]-Asp-NH2] | – | – | – | pKD Category [3]: > 8 pKD; pIC50 (DPP4) [5]: < 6 pIC50; pIC50 (PREP) [6]: < 6 pIC50
Hexanoyl-CPPTQFCD[GABA]R[Ttds″][Ttds″][Ttds″]K(AF488)-NH2 (linker 1-7 via tMeBn(LuDOTA-AET); also: Lu complexed by DOTA, also called 3BP-4373) [Hex-[Cys(tMeBn(LuDOTA-AET))-Pro-Pro-Thr-Gln-Phe-Cys]-Asp-Gab-Arg-Ttds-Ttds-Ttds-Lys(AF488)-NH2] | – | – | 7.1 to 8 | pIC50 Category (Activity) [7]: > 8 pIC50
Hexanoyl-CPPTE[NMeF]C-NH2 (linker 1-7 via mXylylene; SMILES CCCCCC(=O)N[C@H]1CSCc2cccc(c2)CSC[C@@H](C(N)=O)NC(=O)[C@H](Cc2ccccc2)N(C)C(=O)[C@H](CCC(=O)O)NC(=O)[C@H]([C@@H](C)O)NC(=O)[C@@H]2CCCN2C(=O)[C@@H]2CCCN2C1=O, also called 3BP-3358) [Hex-[Cys(3MeBn)-Pro-Pro-Thr-Glu-Nmf-Cys]-NH2] | 6.1 pIC50 and 7 pIC50 | ≤ 6 | – | –
Hexanoyl-CPPTQFCD-NH2 (linker 1-7 via mXylylene; SMILES CCCCCC(=O)N[C@H]1CSCc2cccc(c2)CSC[C@@H](C(=O)N[C@@H](CC(=O)O)C(N)=O)NC(=O)[C@H](Cc2ccccc2)NC(=O)[C@H](CCC(N)=O)NC(=O)[C@H]([C@@H](C)O)NC(=O)[C@@H]2CCCN2C(=O)[C@@H]2CCCN2C1=O) [Hex-[Cys(3MeBn)-Pro-Pro-Thr-Gln-Phe-Cys]-Asp-NH2] | – | – | – | pKD Category [3]: > 8 pKD; pIC50 (DPP4) [5]: < 6 pIC50; pIC50 (PREP) [6]: < 6 pIC50
N4Ac-E(AGLU′)E(AGLU′)[Ttds″][Nle]CPPTEFC-OH (linker 5-11 via 3MeBn(3); reading uncertain; also: printed as N4Ac-Glu(AGLU′)-Glu(AGLU′)-Ttds-Nle-[Cys-(3MeBn)-Pro-Pro-Thr-Glu-Phe-Cys]-OH, also called 3BP-4266) [N4Ac-Glu(AGLU′)-Glu(AGLU′)-Ttds-Nle-[Cys-(3MeBn)-Pro-Pro-Thr-Glu-Phe-Cys]-OH] | – | – | 7.1 to 8 | –
H-[Ahx][Ttds][Nle]CPPTQFCD-NH2 (linker 4-10 via tMeBn(DOTA-PP); SMILES CCCC[C@H](NC(=O)CCC(=O)NCCCOCCOCCOCCCNC(=O)CCCCCN)C(=O)N[C@H]1CSCc2cc(cc(CN3CCN(C(=O)CN4CCN(CC(=O)O)CCN(CC(=O)O)CCN(CC(=O)O)CC4)CC3)c2)CSC[C@@H](C(=O)N[C@@H](CC(=O)O)C(N)=O)NC(=O)[C@H](Cc2ccccc2)NC(=O)[C@H](CCC(N)=O)NC(=O)[C@H]([C@@H](C)O)NC(=O)[C@@H]2CCCN2C(=O)[C@@H]2CCCN2C1=O, also called 3BP-4004) [H-Ahx-Ttds-Nle-[Cys-(tMeBn(DOTA-PP))-Pro-Pro-Thr-Gln-Phe-Cys]-Asp-NH2] | – | – | 7.1 to 8 | pIC50 Category (Activity) [7]: > 8 pIC50

Continued, in another order:

pIC50 Category (Activity) [1] | pIC50 Category (FACS) [2] [pIC50] | pIC50 [4] [pic50] | Binder | also measured
– | – | 7.1 to 8 | N4Ac-E[Ttds″][Nle]CPPTEFC-OH (linker 4-10 via 3MeBn; not fully specified (residue 1); printed as N4Ac--E(AGLU)--Ttds--Nle--[C(3MeBn)-PPTEFC]-OH, also called 3BP-4249) [N4Ac-Glu(AGLU′)-Ttds-Nle-[Cys-(3MeBn)-Pro-Pro-Thr-Glu-Phe-Cys]-OH] | pKD Category [3]: > 8 pKD
6.1 pIC50 and 7 pIC50 | ≤ 6 | – | Hexanoyl-CPPTEF[Pen]-NH2 (linker 1-7 via mXylylene; SMILES CCCCCC(=O)N[C@H]1CSCc2cccc(c2)CSC(C)(C)[C@@H](C(N)=O)NC(=O)[C@H](Cc2ccccc2)NC(=O)[C@H](CCC(=O)O)NC(=O)[C@H]([C@@H](C)O)NC(=O)[C@@H]2CCCN2C(=O)[C@@H]2CCCN2C1=O, also called 3BP-3351) [Hex-[Cys(3MeBn)-Pro-Pro-Thr-Glu-Phe-Pen]-NH2] | –
